From the DeepSol protein solubility set come the findings set out here.

The nature of this data set: soluble on expression in E. coli; label from the status in PepcDB or PDB records.
Turning to “MSHGHSHDGAPCGGHHGDDGAGGSRPSVNDVQALVDQLRLAGVDVSNMPNIPTAPRDMDEARSKSFQFWSTQPVPQMDETVPADVNCAIEENIALDKVRAEPFSLPAGFRWSNVDLSDEEQLNELYNLLTRNYVEDDDSMFRFDYSADFLKWALQVPGFRPEWHCGVRADSNNRLLAFIGAVPQTVRVYDKTVNMVEINFLCVHKNLRSRRVAPVLIREITRRVNVTGIFQAAFTAGIVIPKPVSVCRYYHRSLNPRKLIDVRFSHLSAKMTMARTIKLYKLPEETATRNLREMKSTDVPQVFKLLTTSLKQYSLAPVYNSEEELAHALVPKKGVVYSYVAENQNGKITDFVSFYSLPSTVMGHTTHKTIYAAYLYYYVAGSVTPKQLINDSLILANREKFDVFNALDLMHNEKIFSDLKFGKGDGNLQYYLYNWKCADMKPSQIGLVLQ”, the “soluble on expression in E. coli” value is “not soluble”.

As to “MGSDKIHHHHHHMVDVLVIGGGNAALCAALTAREAGASVLLLEAAPREWRGGNSQHTRNLRCMHDAPQDVLVESYPEEEFWQDLWRVTDGNTNEALARLVIRTSSQCRDWMRKHGVNFQPPLSGALHVARTNAFFMGGGKALVNAYYRSAERLGVQVRYNTPVHALELHDGEFVAALAGSERITAKACVLAAGGFESNREWLREAWGENARGEWPADNFLIRGTRFNQGVLLKFMMDAGADIIGDPSQSHCVAIDARAPLYDGGICTRVDCVSLGIVVNRDAERFYDEGEDFWPKRYAIWGRLVAQQPGQIGYSIIDSKAIGHFMPPVFPGAQANTLAELACQLGLDAEKFTHTVTQYNQACQPGHFDHTLLDDCATKNLTPAKTHWARPLDAPPYYGYALRPGITFTYLGLKVNERAAVHFAGHPSRNLFVAGEMMAGNVLGKGYTAGVGMSIGTTFGRIAGIEAARAAHKEAQHETA”, the “soluble on expression in E. coli” value was “not soluble”.

For the sequence “MGSDKIHHHHHHMNLKTSIENNVHIRAVAAAADELGLETYIVGGYVRDLIMDRDNKDIDFVCLGSGIELAQKVAANMGEHVQVHIFKTFGTAMINAGDTELEFVGARKESYDFNSRKPTVESGTLEDDQLRRDFTINALAICLNKARFGELVDPFDGVSDIKRKIIKTPQDALLTFSDDPLRMIRAVRFATQLNFDIEAATFQAIATNKDRLSIVSMERISQELNKIISAPVPSYGFKLLYISGVLKDIFPEFVALHGVESIDNKSHKDNFYHTLQVLDNVAKVSDDLWLRWAAILHDIAKPLTKRFVERIGWTFHGHEDKGARMVPAIFRKLRLPLNEKMDMVAKLVRLHLRPISLVKDEVTDSAVRRLMFEAGEHFSDLMILCRADVTSKNNNKVKRYLENFDKVERKVIEVEEKDQQRNFQPVVSGEDIMKTFDIKPGKVIGDIKADLIEAILEGDVQNEYEILFPFMINLAEKKYGLVKPETH”, the “soluble on expression in E. coli” value is on record as “not soluble”.

“ASMTGGQQMGRGSGPMLIEFNIPVDLKLVEQQNPKVKLGGRYTPMDGASVHKMALLVPFRDRFEELLQFVPHMTAFLKRQGVAHHIFVLNQVDRFRFNRASLINVGFQFASDVYDYIAMHDVDLLPLNDNLLYEYPSSLGPLHIAGPKLHPKYHYDNFVGGILLVRREHFKQMNGMSNQYWGWGLEDDEFFVRIRDAGLQVTRPQNIKTGTNDTFSHIHNRYHRKRDTQKCFNQKEMTRKRDHKTGLDNVKYKILKVHEMLIDQVPVTILNILLDCDVNKTPWCDCS”: the “soluble on expression in E. coli” value is given as “soluble”.

Regarding “SIRLPAHLRLQPIYWSRDDVAQWLKWAENEFSLSPIDSNTFEMNGKALLLLTKEDFRYRSPHSGDVLYELLQHILKQRDLEAEAAAAEAAAKA”, the “soluble on expression in E. coli” value is “soluble”.

As for “GMPEIHQSIAQHYHERTKYDPETIASKSQRLDWAKQPVPFKEYKIGSAIDLKPYLQETPEVFVNDTNGQWWQRLSRLLFRSYGLTARMPSMGNTVYLRAAPSAGGLYPAEVYVVSRGTPLLSPGLYNYQCRTHSLIHYWESDVWQSLQEACFWHPALESTQLAIIVTAVFYRSAWRYEDRAYRRICLDTGHLLGNIELSAAITDYRPHLIGGFIDEAVNDLLYIDPLQEGAIAVLPLADLLDIQQNISPGCTALPSATETNYPQVPDGELLKYFHHHTQISASITGKLNLPTVIQEKSLEDKYNFPFCLKISTVSAPIYWGENLSDLEITMHKRRSTRAYNGEELTFDELKALLDFTYQPQNYIDQSLDNSPDYFDLNLIETFIAVCGVQGLEAGCYYYAPKAQELRQIRFKNFRRELHFLCLGQELGRDAAAVIFHTSDLKSAIAQYGDRVYRYLHMDAGHLGQRLNLAAIQLNLGVSGIGGFFDDQVNEVLGIPNDEAVIYITTLGRPR”, the “soluble on expression in E. coli” value is listed as “soluble”.

“MKREEIADLMAFVVVAEERSFTRAAARLSMVQSALSQIVRRIEERLGLRLLTRTTRSVVPTEAGEHLLSVLGPILHDIDSALTSLSDLQNRPSGTIRITTVEHAAKTILLPAMRTFLKSHPEIDIQLTIDYGLTDVVSERFDAGVLRCTGNSGYYHLFFF”: the “soluble on expression in E. coli” value is “not soluble”.

Turning to “MSTDLQHIRIGLTNNHPCSYLPERQERVAVALDAELHTEQNYQLLMANGFRRSGDTIYKPHCERCHACQPIRISIPDFVLSRSQKRLLSKAKSLRWEMKTEMDAEWFELYSRYICKRHKNGTMYPPKRDEFSRFAQTTWLTTLFLHIYDESNQLLGVAVTDVMAQCSSAFYTFFEPDYPLSLGTLAVLYQVNYCQQNNEQWLYLGYQIDECPAMNYKTRFQRHQRLVNQRWQGLEHHHHHH”, the “soluble on expression in E. coli” value is reported as “soluble”.

As to “MAHHHHHHMRERKPIRKMKRSRVSDQIIRVEEPDAEEGEASPAKATPVPHFSDRRICINVGGEYITTLASTLCSEPSKFSEWVENNFQGLPRDSMGNPFIDRDPENFRQIISYLRGYELPTATEKIVFLAEDAEYYHIDRLLALINPPAEWRFVSGPGVSSSRKEFSTENILATCGNEPLPQVGKSVFLLRIDKCELVSIGLVGTESPDHDEPLERQTNAIAYRSTGELIRSLNSSSTFFSGNGYKGRDTVMVQVLFKPEGAAQIEFFCNDVKTHETEWLSPVPPLRFAVSLHGVSAVVIERCVAGVKDEDM”, the “soluble on expression in E. coli” value is reported as “not soluble”.

In the case of “MSLYIPCLMCTQHPDSTVKITAGEEVDEAVVAFLAYGCDEVMVDYEGKATPYSQPRDVASKALALGLPLGERFFITPRVPNPRLEDFERSMLSLEAAVLANSYSQRAAGVQAVKWVVLPMTEDVETMAFVYKALDMKARDLAELNAVKRDSSIELIPLVEDAMRQIKIESFIKALFRTAAQSGRILEHMRIFLGISDSAVRHGHMASALAMVKALGQISEINRDGEFKISPIVGMGSPPFRGGLNNPHLAVPEAAQYAGYKTATIQSAVRYDVSYAEYQKVREAILSVYTPRRLHVEEAWITKASELYREAIRPYIGKIAELANAIPSTRDRVSWREYGRVIEGVEWRVPRAIVYTATWYFAGVPPTLLDARFIAWAYKNDLLDDVLRALPATVEEWKFESRFYSRERAEKTLGGEIVKDIDNAFDILGIKPEPDRTYITLLNSADTQPHAIALGRIRGFLGEGHHHHHH”, the “soluble on expression in E. coli” value is given as “not soluble”.

With “AVVSTDEYVTRTNIYYHAGSSRLLAVGHPYYAIKKQDSNKIAVPKVSGLQYRVFRVKLPDPNKFGFPDTSFYDPASQRLVWACTGVEVGRGQPLGVGISGHPLLNKLDDTENSNKYVGNSGTDNRECISMDYKQTQLCLIGCRPPIGEHWGKGTPSNANQVKAGECPPLELLNTVLQDGDMVDTGFGAMDFTTLQANKSDVPLDICSSICKYPDYLKMVSEPYGDMLFFYLRREQMFVRHLFNRAGTVGETVPADLYIKGTTGTLPSTSYFPTPSGSMVTSDAQIFNKPYWLQRAQGHNNGICWSNQLFVTVVDTTRSTNMSVCSAVSSSDSTYKNDNFKEYLRHGEEYDLQFIFQLCKITLTADVMTYIHSMNPSILEDWNGGSGGDPLKNYTFWEVDLKEKFSADLDQFPLGRKFLLQAGL”, the “soluble on expression in E. coli” value was “soluble”.

Take “GHNLSYSVSANLSNYDARITRYDNPEKVFAKSYYPGMKLGEIWGYHVDGLFASDEEAAQYSSQVDLGVVAKNLPQGTWRAGDLKFADLDGDGKISVGEDSALNPGDMKIIGNELPTLQYGFSGSLNYMGFDIYAFFQGTGNHYWYPNGYNYQFWGSFSDPVAGYIPRNFIDQCWSKDNPGAYFPRPLGQSAKNGQLSFVNDRYLQNIRYMRFKNLTIGYSIPGKILSKVSIQQLRVYFTAENLCYWSPIKKHSKYIDPEAAFSRSSNQLNAMYYPWAKTYMFGIDITL”: the “soluble on expression in E. coli” value is recorded as “not soluble”.

Turning to “MGSDKIHHHHHHMALKKICLENFTVFDKMEIEFCDGVNVLIGENGTGKTHIMKLLYAACQSAHASKKVISFPQKIVQVFKPDHANISRLLSRKAGNGSAKVHVISGNNTLKTSFNLKTKNWDAEVVGAQAWEKQLSNLTSTFIPAKEILSNSKNLVNAINVGNVDFDDTYKDIISVASVDINRGPNNVQKEKYLQILQDITDGKVSYENEEFYLLPGNQAKLEFQLVAEGMRKIALLWQLIKNGTLEQGTVLFWDEPEANINPKHIPALVEVLLNLQGDGVQIFIATHDYVLAKYLEIRMADANKIRFHSLYKKEGRVEVESNHNFKDLVNNSIAEAYNKLLDEVFEQTTKG”, the “soluble on expression in E. coli” value was “not soluble”.

Take “MKLIRGIHNLSQAPQEGCVLTIGNFDGVHRGHRALLQGLQEEGRKRNLPVMVMLFEPQPLELFATDKAPARLTRLREKLRYLAECGVDYVLCVRFDRRFAALTAQNFISDLLVKHLRVKFLAVGDDFRFGAGREGDFLLLQKAGMEYGFDITSTQTFCEGGVRISSTAVRQALADDNLALAESLLGHPFAISGRVVHGDELGRTIGFPTANVPLRRQVSPVKGVYAVEVLGLGEKPLPGVANIGTRPTVAGIRQQLEVHLLDVAMDLYGRHIQVVLRKKIRNEQRFASLDELKAQIARDELTAREFFGLTKPA”: the “soluble on expression in E. coli” value is recorded as “soluble”.

Turning to “MGSDKIHHHHHHMKCILYKKALPLILLSCLLLGACGNSKNDSVSKEPLSHTSTEKGTWDSAPKVLTPTADGTQTYTCDVASIDASNSGSGYIIVNYHGSNQKVKLQITGPDSVTYTFDLHGGNEVFPLVASSGSYTVTVFENVEGTQYATVLSQVISVSITDEFGPYLYPNQYVNFTADSPAVKEGSSLAYYCSSDTEVVESVYNYIISNFKYDYDKAKNVKSGYLPDVDKVFTENTGICFDYAAVMATMLRTQAIPTRLEVGYAGEEYHAWISTYIKDKGWINGIIEFDGTSWNMLDPTFASTSDSPKKFIAQKSDYITKYVY”, the “soluble on expression in E. coli” value is “not soluble”.

As to “FPELMPLRTQWTTIRDEALALQRIQKIRAAEGHTDAGFNSFFRRGWKRFYLKWYGTTHPSAIALCPKTTALLKNIPAIKAAMFAELPPGGDLRPHRDPFAGSMRLHLGLATPNHTSCFIDVDGQRYSWHDGEWVMFDETYIHYARNDTEHNRIILFCDIERPMRWRWAQALNRFVAKHLLAAGTSPN”, the “soluble on expression in E. coli” value is reported as “not soluble”.

For the sequence “FSPLSSQSSACCFAYIARPLPRAHIKEYFYTSGKCSNPAVVFVTRKNRQVCANPEKKWVREYINSLEMS”, the “soluble on expression in E. coli” value is listed as “soluble”.

For “GVVNVVVPQYVNCPDVCHWESAIMIYLMGELVERGLQDKVVFVTIGVNPYYETIEDGKRYMESVAGDYLDKGVKWIWVLDDVEKQEELWNMFGIAVSLYCVKNDGSIIDELTYDDYLKLEESGECSFVGVNHTAGFIIVDGDGVFRYFMSPTEDGWKRGQRQVAETILQYILKLVEERK”, the “soluble on expression in E. coli” value was “not soluble”.

Take “LARPKLAVVGSRNASQMGVAAVKKIIQDLSKQFVIISGLARGIDTAAHLASLKSGGATIAVIGTGLDVHYPKENRRLQDYIAKNHLLLSEYEAQSQPLKYHFPERNRIIAGLSQGVMVAEAKIRSGSLITCERAMEEGRDVFVVPGNILDGQSEGCHHLIQEGAKCITSGFDILNEFNF”: the “soluble on expression in E. coli” value is on record as “not soluble”.
